Source: patent US9206239B2, “Treatment of cancers with immunostimulatory HIV Tat derivative polypeptides” (PIN Pharma, Inc., priority 2009, dated 2015)
Entries after “also recorded” stand apart in the source; their conditions may differ.

Tests used:
4T1 cells = experiment: Repeated dosing of Nani-P2 alternating with cyclophosphamide in 4T1 tumor-bearing mice; format: in vivo, BALB/c mice; conditions: by day 42; 80 mg/kg IP weekly from day 10
Experimental: Four groups of 10 BALB/c mice were implanted with 1×10^4 4T1 cells SC into the mammary fat pad. Treatment was initiated when tumor diameters reached 4-5 mm, on day 10. Control mice were injected IV with PBS at 3 days intervals, while alternating treatment mice received 3 doses of drug every 3 days in rotating 10 day cycles. Tumor burden (tumor size mm^3) was calculated using a standard formula. CY: (cyclophosphamide alone) mice were injected IP weekly with 80 mg/kg per mouse beginning on day 10. Cy/Nani-P2: (cyclophosphamide first followed by Nani-P2) mice were first injected IP with cyclophosphamide (80 mg/kg) at 3 days intervals for three doses starting at day 10 and then injected IV with Nani-P2 (40 ng) at 3 days intervals for three doses in rotation. The cycle of 3 doses of CY followed by 3 doses of Nani-P2 was repeated until day 50. Nani-P2/CY: (Nani-P2 first followed by cyclophosphamide): mice were first injected IV with Nani-P2 (40 ng) at 3 day intervals for 3 doses starting on day 10 and then injected i.p. with cyclophosphamide at 3 day intervals in rotation. The cycle of 3 doses of Nani-P2 followed by 3 doses of CY was repeated until day 50.

4T1 breast tumor cells = experiment: 4T1 breast tumor growth in BALB/c mice; format: in vivo
Text: Female BALB/c mice 6 to 8 weeks old were purchased from the Jackson Laboratory (Bar Harbor, […].). Mice were acclimated for at least 1 week before use. Mice were kept in pathogen-free conditions at the Animal Maintenance Facility of the Columbia University of Medical Center and all experiments were approved by the Institutional Animal Care and Use Committee of Columbia University of Medical Center.
4T1 cells, a 6-thioguanine-resistant cell line derived from a BALB/c spontaneous mammary carcinoma was obtained from ATCC; TS/A, a murine adenocarcinoma cell line was provided by Dr. Sandra Demaria (Demaria S. et al. Clin Cancer Res. 11:728-34, 2005); and SM1, the BALB/C-derived mammary carcinoma was kindly was provided by Dr. James Allison, University of California, Berkeley. All tumor cell lines were cultured in DMEM, supplemented with 2 mM L-glutamine, 10 mM HEPES, 150 units/ml penicillin/streptomycin, 10% heat-inactivated FCS (Invitrogen), 50 μM 2-mercaptoethanol (Sigma), and 50 mg/L gentamicin (Lanza).
BALB/c were injected (SC) with 1×10^4 4T1, 1×10^5 TS/A or 2×10^5 SM1 cells, respectively, in the left mammary pad on day 0. Immunotherapy was performed by directly injecting a Tat derivative into the right flank at 0, 7, 12, and 17 days after establishment of tumors. The control group received PBS injection. […] Tumor burden (tumor volume) was measured and recorded three times weekly. Animals were sacrificed when tumors reached a volume of 15 mm in diameter and the tumors harvested and weighed.
The therapeutic effect of systemic administration of synthetic, Tat-derived compositions in murine models of breast cancer was investigated. To compare the relative protection conferred by a small panel of different derivatives against primary breast tumor growth, female BALB/c mice were injected with 1×10^4 4T1 breast tumor cells SC into the mammary pad, and then treated with 400 ng partially-purified Tat derivatives at day 0, 7, 14 and 21 (SC injection in PBS) into the draining axillary lymph nodes.

## O=P1(N(CCCl)CCCl)NCCCO1 (stereo not drawn) [cyclophosphamide, reference compound]
4T1 cells
  treated mice dead: 10/10

B1: Nani-P3: HIV Tat derivative polypeptide, SEQ ID NO: 4; serine-rich TARA homology sequence replaces the SH3 binding sequence (protein)
chain: METPLKEQENSLESCREHSSSISEVDVPTPVSCLRKGGRCWNRCIGNTRQIGSCGVPFLKCCKRKPFTRKGLGISYGRKKRRQRRRAPQDSQTHQASLSKQPASQSRGDPTGPTESKKKVERETETDPFD
modifications: Nani-P3 modified HIV Tat sequence
4T1 breast tumor cells; 400 ng or 2 μg SC days 0, 7, 14, 21
  4T1 primary tumor growth vs controls: less effective at suppressing 4T1 primary tumor growth; also recorded: no difference

B2: Nani-P1: HIV Tat derivative polypeptide, SEQ ID NO: 2; internal prolines of the SH3-binding site each substituted as alanine (protein)
chain: MEPVDANLEAWKHAGSQPRKTACTTCYCKKCCFHCQVCFTRKGLGISYGRKKRRQRRRAPQDSQTHQASLSKQPASQSRGDPTGPTESKKKVERETETDPFD
modifications: Nani-P1 modified HIV Tat sequence
4T1 breast tumor cells; 400 ng partially-purified derivative SC day 0, 7, 14, 21, apparent from day 15 (p<0.05)
  tumor burden compared to control mice receiving PBS: significantly reduced tumor burden
